US12440565

Biological target: CD40 on the surface of mature dendritic cells (mDC) (human) (UniProt P25942)
Experiment: cell-based or functional assay

Sequence of CD40 on the surface of mature dendritic cells (mDC) (human) (P25942 21-277): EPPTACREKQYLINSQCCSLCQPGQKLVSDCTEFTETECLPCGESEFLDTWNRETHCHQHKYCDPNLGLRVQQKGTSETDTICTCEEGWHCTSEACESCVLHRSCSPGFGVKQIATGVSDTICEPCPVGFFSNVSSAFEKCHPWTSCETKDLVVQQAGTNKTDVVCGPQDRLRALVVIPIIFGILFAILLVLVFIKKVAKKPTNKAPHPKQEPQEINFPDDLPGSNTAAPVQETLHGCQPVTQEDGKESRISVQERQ

CD83+ (%) of mDC, agonist at 2 µg/mL (control group 81.00): 88.2%
IL-12p70 (pg/mL), agonist at 2 µg/mL (control group 50.0): 874 pg/mL
Substance: CD40L recombinant protein (from UniProt P29965 113-261) (ligand)
